# Measurements from PMC3246388 (Biomacromolecules, 2011).
# B1: bacteriophage Qβ coat protein, assembled as the recombinant virus-like particle (natural protein)
# chain: MAKLETVTLGNIGKDGKQTLVLNPRGVNPTNGVASLSQAGAVPALEKRVTVSVSQPSRNRKNYKVQVKIQNPTACTANGSCDPSVTRQAYADVTFSFTQYSTDEERAFVRTELAALLASPLLIDAIDQLNPAY
# Target: the molecule itself
# Assay: SEC + other: dynamic light scattering + other: transmission electron microscopy
protein,measurement,value
B1,binding result,binds
